Measurements: patent publication US20220315554A1, “COMPOUNDS COMPRISING A […] LIGAND AND USE THEREOF” (priority 2019, published 2022)
Bridge positions count the residues as written; N and C are the ends. * marks the point of attachment. tMeBn(DOTA-AET) = Cys-Cys bridge (thioethers) carrying DOTA-AET; tMeBn(DOTA-PP) = Cys-Cys bridge (thioethers) carrying DOTA-PP; Hexanoyl = CCCCCC(=O)*

B1: Hex-[Cys(tMeBn(DOTA-PP))-Pro-Pro-Thr-Gln-Phe-Cys]-Asp-NH2 (3BP-3407) (peptide)
peptide: Hexanoyl-CPPTQFCD-NH2
modifications: linker 1-7 via tMeBn(DOTA-PP)
B2: Hex-[Cys(tMeBn(DOTA-AET))-Pro-Pro-Thr-Gln-Phe-Cys]-OH (3BP-3554) (peptide)
peptide: Hexanoyl-CPPTQFC-OH
modifications: linker 1-7 via tMeBn(DOTA-AET)

What was measured:
Assay in all cases: radioligand displacement, 10 uM compound
Details in all cases: remark: other sources report otherwise
[1] = target: T1, 5-HT3 (h) (human (printed (h))), P46098
T1 chain: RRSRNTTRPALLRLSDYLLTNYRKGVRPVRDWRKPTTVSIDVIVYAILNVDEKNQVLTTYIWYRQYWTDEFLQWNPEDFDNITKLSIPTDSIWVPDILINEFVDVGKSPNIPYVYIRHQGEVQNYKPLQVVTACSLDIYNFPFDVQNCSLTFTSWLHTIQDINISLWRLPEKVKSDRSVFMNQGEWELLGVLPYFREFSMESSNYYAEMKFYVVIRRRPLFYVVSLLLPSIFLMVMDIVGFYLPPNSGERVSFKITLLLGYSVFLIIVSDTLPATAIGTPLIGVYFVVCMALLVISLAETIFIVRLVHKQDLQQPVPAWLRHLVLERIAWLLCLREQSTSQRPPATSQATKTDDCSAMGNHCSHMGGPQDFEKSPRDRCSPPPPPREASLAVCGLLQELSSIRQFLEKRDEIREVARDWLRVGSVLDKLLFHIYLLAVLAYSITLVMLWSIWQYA

[2] = target: 5-HT2B (h) (human (printed (h))), P41595
[3] = target: T2, CCK1 (CCKA) (h) (human (printed (h))), P32238
T2 chain: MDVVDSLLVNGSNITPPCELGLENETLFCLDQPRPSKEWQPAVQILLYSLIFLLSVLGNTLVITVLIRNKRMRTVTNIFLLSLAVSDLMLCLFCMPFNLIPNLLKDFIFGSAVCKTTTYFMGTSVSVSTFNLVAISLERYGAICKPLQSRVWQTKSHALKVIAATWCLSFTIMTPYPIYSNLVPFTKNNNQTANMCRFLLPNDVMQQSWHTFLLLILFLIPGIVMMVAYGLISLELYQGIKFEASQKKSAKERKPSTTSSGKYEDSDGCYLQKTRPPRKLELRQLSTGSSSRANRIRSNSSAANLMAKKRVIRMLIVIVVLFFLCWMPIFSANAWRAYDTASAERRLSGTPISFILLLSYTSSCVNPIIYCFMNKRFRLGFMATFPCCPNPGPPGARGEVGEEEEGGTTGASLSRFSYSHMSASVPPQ

[4] = target: norepinephrine transporter (h) (human (printed (h))), P23975
[5] = target: CB2 (h) (human (printed (h))), P34972
[6] = target: T3, alpha 1A (h) (human (printed (h))), P35348
T3 chain: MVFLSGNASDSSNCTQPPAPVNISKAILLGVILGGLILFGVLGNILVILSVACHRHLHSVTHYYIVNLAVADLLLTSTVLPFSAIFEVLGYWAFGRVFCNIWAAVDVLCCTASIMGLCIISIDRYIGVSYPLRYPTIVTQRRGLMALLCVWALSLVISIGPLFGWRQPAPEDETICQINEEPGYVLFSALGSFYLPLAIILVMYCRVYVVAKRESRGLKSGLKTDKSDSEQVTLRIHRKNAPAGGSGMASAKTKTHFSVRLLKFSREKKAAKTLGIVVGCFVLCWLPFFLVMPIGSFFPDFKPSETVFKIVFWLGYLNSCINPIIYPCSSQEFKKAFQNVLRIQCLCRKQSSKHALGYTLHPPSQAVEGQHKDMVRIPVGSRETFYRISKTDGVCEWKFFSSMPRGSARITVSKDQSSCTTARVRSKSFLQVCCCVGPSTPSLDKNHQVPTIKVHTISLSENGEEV

[7] = substrate: N neuronal alpha 4beta 2 (h) (human (printed (h))), P43681
[8] = target: T4, M1 (h) (human (printed (h))), P11229
T4 chain: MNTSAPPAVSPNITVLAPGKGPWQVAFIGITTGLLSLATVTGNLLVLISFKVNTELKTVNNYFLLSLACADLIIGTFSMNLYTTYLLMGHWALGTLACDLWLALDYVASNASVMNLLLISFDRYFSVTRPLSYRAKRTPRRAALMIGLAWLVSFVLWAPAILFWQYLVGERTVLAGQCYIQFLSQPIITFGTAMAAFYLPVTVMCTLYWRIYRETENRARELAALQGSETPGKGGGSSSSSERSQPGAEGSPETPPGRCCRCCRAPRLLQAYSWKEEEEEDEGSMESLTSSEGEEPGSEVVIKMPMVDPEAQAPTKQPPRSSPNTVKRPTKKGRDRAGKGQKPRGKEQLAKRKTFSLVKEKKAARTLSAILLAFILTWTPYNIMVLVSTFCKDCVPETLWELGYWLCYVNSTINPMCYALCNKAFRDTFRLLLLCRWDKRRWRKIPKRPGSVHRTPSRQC

[9] = target: 5-HT transporter (h) (human (printed (h))), P31645
[10] = target: T5, CB1 (h) (human (printed (h))), P21554
T5 chain: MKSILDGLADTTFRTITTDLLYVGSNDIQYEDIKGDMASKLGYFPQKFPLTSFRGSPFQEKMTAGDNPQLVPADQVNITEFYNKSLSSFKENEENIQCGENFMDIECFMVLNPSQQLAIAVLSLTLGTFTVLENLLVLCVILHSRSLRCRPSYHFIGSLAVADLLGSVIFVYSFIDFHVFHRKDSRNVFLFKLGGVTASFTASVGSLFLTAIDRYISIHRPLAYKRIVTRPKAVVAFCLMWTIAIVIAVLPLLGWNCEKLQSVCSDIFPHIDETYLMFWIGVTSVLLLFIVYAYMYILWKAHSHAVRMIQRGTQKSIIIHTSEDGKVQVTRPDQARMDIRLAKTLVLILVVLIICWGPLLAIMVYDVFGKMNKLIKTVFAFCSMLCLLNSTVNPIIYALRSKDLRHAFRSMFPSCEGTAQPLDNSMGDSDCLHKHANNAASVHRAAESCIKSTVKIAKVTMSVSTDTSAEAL

[11] = target: H1 (h) (human (printed (h))), P35367
Sequence of H1 (h) (human (printed (h))), P35367 (P35367 whole entry): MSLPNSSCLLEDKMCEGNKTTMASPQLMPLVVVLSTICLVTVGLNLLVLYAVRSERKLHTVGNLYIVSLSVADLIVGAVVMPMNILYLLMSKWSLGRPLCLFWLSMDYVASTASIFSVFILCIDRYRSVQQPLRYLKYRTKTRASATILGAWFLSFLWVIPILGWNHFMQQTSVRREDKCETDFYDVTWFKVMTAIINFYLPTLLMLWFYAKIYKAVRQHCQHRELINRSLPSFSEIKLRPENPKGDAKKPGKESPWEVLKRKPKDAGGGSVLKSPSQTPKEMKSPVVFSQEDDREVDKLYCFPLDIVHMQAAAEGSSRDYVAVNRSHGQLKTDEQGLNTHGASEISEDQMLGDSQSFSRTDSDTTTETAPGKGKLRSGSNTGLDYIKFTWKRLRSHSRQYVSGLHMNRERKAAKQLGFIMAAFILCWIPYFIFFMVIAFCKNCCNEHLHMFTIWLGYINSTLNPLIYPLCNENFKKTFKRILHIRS

| Binder | % Inhibition of Specific Binding [1] | % Inhibition of Specific Binding [2] | % Inhibition of Specific Binding [3] | % Inhibition of Specific Binding [4] | % Inhibition of Specific Binding [5] | % Inhibition of Specific Binding [6] | % Inhibition of Specific Binding [7] | % Inhibition of Specific Binding [8] | % Inhibition of Specific Binding [9] | % Inhibition of Specific Binding [10] | % Inhibition of Specific Binding [11] |
| --- | --- | --- | --- | --- | --- | --- | --- | --- | --- | --- | --- |
| B1 | 2% | 2% | 24% | -8% | 2% | 2% | -8% | 6% | -3% | 5% | 11% |
| B2 | 4% | 3% | 16% | -5% | -5% | -12% | -2% | 8% | -8% | -7% | 4% |
